Data from patent publication US20060177448A1, “Inhibiting HER2 shedding with matrix metalloprotease antagonists” (Genentech, Inc., priority 2005, published 2006).

Test system: SKBR-3 cells
Test: HER2 ECD ELISA of conditioned media (HER2 shedding), SKBR-3 cells
Format: cell-based, human
Settings: 1 μg/ml
Experimental: BT 474, MCF-7, and SKBR-3 cells were maintained in high-glucose DMEM:Ham's F12 (50:50) supplemented with 10% heat-inactivated FBS and 2 mM L-Glutamine. […] Cell lines were maintained at 37° C. in a humidified incubator supplied with 5% CO2. BT 474 and SKBR-3 cells were transiently transfected with constructs as described by electroporation using kit V according to the manufacturer's instructions (AMAXA™).
Serum was diluted 1:50 using assay buffer (PBS/0.5% BSA, 0.05% TWEEN® 20/10 ppm PROCLIN® 300/0.2% BGG/0.25% CHAPS/0.15 M NaCl/5mM EDTA (pH 7.4) followed by additional 1:2 serial dilutions. Shed HER2 was captured using a goat anti-HER2 polyclonal antibody (Genentech) onto NUNC® Maxisorp plates and detected using a biotin-conjugated rabbit anti-HER2 polyclonal antibody (Genentech) followed by a AMDEX™-strepavidin-horseradish peroxidase antibody (Amersham Pharmacia Biotech) following a procedure described previously (Sias et al., J. Immunol. Meth. 109:219-27 (1990)). For cell culture experiments, cells were treated as indicated and conditioned media was collected and diluted in assay buffer serially 1:2. The concentration of shed HER2 in serum or in conditioned media was determined from a four-parameter fit of a standard curve using purified recombinant HER2 ECD protein (Genentech) as a standard.
The pSIREN shRNA construct(s) or vector alone were transiently transfected into SKBR-3 and BT 474 cells using AMAXA™ kit V following manufacturer's recommendations. After 48 hours, conditioned media was collected and assayed for shed HER2 by HER2 ELISA and the cells were lysed directly on the plate using 2×Sample buffer.

B1: Timp-3: naturally occurring peptides that regulate metalloprotease activity (protein, UniProt P35625 24-211, looked up)
Metalloproteinase inhibitor 3: CTCSPSHPQDAFCNSDIVIRAKVVGKKLVKEGPFGTLVYTIKQMKMYRGFTKMPHVQYIHTEASESLCGLKLEVNKYQYLLTGRVYDGKMYTGLCNFVERWDQLTLSQRKGLNYRYHLGCNCKIKSCYYLPCFVTSKNECLWTDMLSNFGYPGYQSKHYACIRQKGGYCSWYRGWAPPDKSIINATDP
HER2 ECD levels in conditioned media: reduced HER2 ECD levels
